B1: HAdV-F41 hexon protein (natural protein, human adenovirus F41 (strain Tak))
chain: MATPSMMPQWSYMHIAGQDASEYLSPGLVQFARATDTYFSLGNKFRNPTVAPTHDVTTDRSQRLTLRFVPVDREDTAYSYKVRFTLAVGDNRVLDMASTYFDIRGVLDRGPSFKPYSGTAYNSLAPKTAPNPCEWKDNNKIKVRGQAPFIGTNINKDNGIQIGTDTTNQPIYADKTYQPEPQVGQTQWNSEVGAAQKVAGRVLKDTTPMLPCYGSYAKPTNEKGGQASLITNGTDQTLTSDVNLQFFALPSTPNEPKAVLYAENVSIEAPDTHLVYKPDVAQGTISSADLLTQQAAPNRPNYIGFRDNFIGLMYYNSTGNMGVLAGQASQLNAVVDLQDRNTELSYQLMLDALGDRSRYFSMWNQAVDSYDPDVRIIENHGVEDELPNYCFPLGGSAATDTYSGIKANGQTWTADDNYADRGAEIESGNIFAMEINLAANLWRSFLYSNVALYLPDSYKITPDNITLPENKNTYAYMNGRVAVPSALDTYVNIGARWSPDPMDNVNPFNHHRNAGLRYRSMLLGNGRYVPFHIQVPQKFFAIKNLLLLPGSYTYEWNFRKDVNMILQSSLGNDLRVDGASVRFDSINLYANFFPMAHNTASTLEAMLRNDTNDQSFNDYLCAANMLYPIPSNATSVPISIPSRNWAAFRGWSFTRLKTKETPSLGSGFDPYFTYSGSVPYLDGTFYLNHTFKKVSIMFDSSVSWPGNDRLLTPNEFEIKRTVDGEGYNVAQCNMTKDWFLIQMLSHYNIGYQGFYVPESYKDRMYSFFRNFQPMSRQVVNTTTYKEYQNVTLPFQHNNSGFVGYMGPTMREGQAYPANYPYPLIGQTAVPSLTQKKFLCDRTMWRIPFSSNFMSMGALTDLGQNMLYANSAHALDMTFEVDPMDEPTLLYVLFEVFDVVRIHQPHRGVIEAVYLRTPFSAGNATT

Legend:
Assay in all cases: cryo-EM structure
[1] = biological target: HAdV-F41 penton base protein, virion-bound (human adenovirus F41 (strain Tak))
cryo-EM structure = biological target: the molecule itself
HAdV-F41 hexon protein = biological target: B1

Molecule | stoichiometry N [1] | stoichiometry N (cryo-EM structure) | binding result (HAdV-F41 hexon protein)
HAdV-F41 penton base protein, virion-bound (natural protein) | 5 | – | –
B1 | – | 3 | –
HAdV-F41 capsid protein IX (natural protein, human adenovirus F41 (strain Tak), UniProt P32539 1-133, looked up) MSGSMEGNAVSFKGGVFSPYLTTRLPAWAGVRQNVMGSNVDGRPVAPANSATLTYATVGSSVDTAAAAAASAAASTARGMAADFGLYNQLAASRSLREEDALSVVLTRMEELSQQLQDLFAKVALLNPPANAS | – | 3 | binds

Source: paper PMC7793593 (Science Advances, 2021)
